Apparent dissociation rate constant (before subtracting GTP hydrolysis), koff and kon data for 1 molecule are collected here from paper PMC6309729.

Where two headings read alike, the source gives them in different places.

Test in all cases: other fluorescence titration
The target in assay [1] is acrylodan-labeled cpSRP54(234C, A142W) (Arabidopsis thaliana).
For assay [2], the target named is cpSRP54(234C)-acrylodan (Arabidopsis thaliana) (UniProt P37107).
The target is the same in assay [3]. The source holds these as a separate data set.

B1: cpFtsY (chloroplast SRP receptor), wildtype (natural protein)
chain: CSAGPSGFFTRLGRLIKEKAKSDVEKVFSGFSKTRENLAVIDELLLFWNLAETDRVLDELEEALLVSDFGPKITVRIVERLREDIMSGKLKSGSEIKDALKESVLEMLAKKNSKTELQLGFRKPAVIMIVGVNGGGKTTSLGKLAHRLKNEGTKVLMAAGDTFRAAASDQLEIWAERTGCEIVVAEGDKAKAATVLSKAVKRGKEEGYDVVLCDTSGRLHTNYSLMEELIACKKAVGKIVSGAPNEILLVLDGNTGLNMLPQAREFNEVVGITGLILTKLDGSARGGCVVSVVEELGIPVKFIGVGEAVEDLQPFDPEAFVNAIFS
Take B1: in assay [1], the apparent dissociation rate constant (before subtracting GTP hydrolysis) is 0.038 s⁻¹. Moreover, in assay [1], the koff stood at 0.03 s⁻¹. For the same molecule, the kon in assay [1] worked out at 190000 M⁻¹ s⁻¹; in assay [2], 230000 M⁻¹ s⁻¹; in assay [3], 157000 M⁻¹ s⁻¹.

A word on the koff: it is the rate constant with which the complex falls apart. Lower therefore signals a long-lived complex. One may read the kon as a measure of how fast the partners come together. Low readings indicate slower complex formation, high ones faster complex formation.
